B1: His-tagged histone H2A.X.3 (natural protein)
chain: MSSGAGSGTTKGGRGKPKATKSVSRSSKAGLQFPVGRIARFLKAGKYAERVGAGAPVYLSAVLEYLAAEVLELAGNAARDNKKTRIVPRHIQLAVRNDEELSKLLGSVTIANGGVLPNIHQTLLPSKVGKNKGDIGSASQEF
B2: His-tagged histone H2A.Z.9 (natural protein)
chain: not shown

Biological target: His-tagged histone H2B.9 (Arabidopsis, UniProt O23629 1-150)
Experiment: reconstitution of histone heterodimers

Chain of His-tagged histone H2B.9 (O23629 whole entry): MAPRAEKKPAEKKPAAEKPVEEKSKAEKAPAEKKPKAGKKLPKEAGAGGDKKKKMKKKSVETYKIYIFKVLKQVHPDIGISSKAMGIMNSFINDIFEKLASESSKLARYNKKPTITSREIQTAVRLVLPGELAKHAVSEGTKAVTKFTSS

Binder	binding result
B1	binds
B2	binds
